Reference: patent publication US20210087281A1 (AGOMAB THERAPEUTICS, published 2021)

Columns and labels:
[1] = target: T1, native human MET on living cells (human, UniProt P08581 25-1390); experiment: cell-based or functional assay
[2] = target: T2, native mouse MET on living cells (mouse, UniProt P16056 25-1379); experiment: cell-based or functional assay
[3] = target: T1, native human MET on living cells; experiment: cell-based or functional assay; remark: listed apart in the source
[4] = target: T2, native mouse MET on living cells; experiment: cell-based or functional assay; remark: listed apart in the source
[5] = target: T1, native human MET on living cells; experiment: cell-based or functional assay; remark: listed apart in the source
[6] = target: T2, native mouse MET on living cells; experiment: cell-based or functional assay; remark: listed apart in the source
[7] = target: T1, native human MET on living cells; experiment: cell-based or functional assay; remark: listed apart in the source
[8] = target: T2, native mouse MET on living cells; experiment: cell-based or functional assay; remark: listed apart in the source
[9] = target: T1, native human MET on living cells; experiment: flow cytometry, A549 cells
Method in brief: (§1)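 Chimeric anti-MET antibodies were incubated with living cells expressing native MET, human on A549 and mouse on MLP29. Binding was detected by flow cytometry with phycoerythrin-conjugated anti-human IgG1. Commercial anti-MET antibodies with matching PE secondaries served as positive controls.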

[10] = target: T2, native mouse MET on living cells; experiment: flow cytometry, MLP29 cells
Method in brief: as §1

[11] = target: human MET ECD mutant A (mutations 1, 2, 3) (human) (UniProt P08581); experiment: ELISA, MET ECD in solid phase, mAb 0-50 nM
[12] = target: human MET ECD mutant D (mutations 1, 2) (human) (UniProt P08581); experiment: ELISA, MET ECD in solid phase, mAb 0-50 nM
[13] = target: human MET ECD mutant E (mutations 2, 3, 4) (human) (UniProt P08581); experiment: ELISA, MET ECD in solid phase, mAb 0-50 nM
[14] = target: human MET ECD mutant H (mutations 2, 4) (human) (UniProt P08581); experiment: ELISA, MET ECD in solid phase, mAb 0-50 nM
human MET ECD [15] = target: T3, human MET ECD (human, UniProt P08581 25-932); experiment: ELISA, MET ECD in solid phase, mAb 0-20 nM
T3 construct: range 1-932; recombinant ECD made by the applicants; the stated range begins at residue 1, so it includes the signal peptide of the entry; also called hMET; hMET ECD
T3 sequence (P08581 25-932 limits assumed, form in doubt): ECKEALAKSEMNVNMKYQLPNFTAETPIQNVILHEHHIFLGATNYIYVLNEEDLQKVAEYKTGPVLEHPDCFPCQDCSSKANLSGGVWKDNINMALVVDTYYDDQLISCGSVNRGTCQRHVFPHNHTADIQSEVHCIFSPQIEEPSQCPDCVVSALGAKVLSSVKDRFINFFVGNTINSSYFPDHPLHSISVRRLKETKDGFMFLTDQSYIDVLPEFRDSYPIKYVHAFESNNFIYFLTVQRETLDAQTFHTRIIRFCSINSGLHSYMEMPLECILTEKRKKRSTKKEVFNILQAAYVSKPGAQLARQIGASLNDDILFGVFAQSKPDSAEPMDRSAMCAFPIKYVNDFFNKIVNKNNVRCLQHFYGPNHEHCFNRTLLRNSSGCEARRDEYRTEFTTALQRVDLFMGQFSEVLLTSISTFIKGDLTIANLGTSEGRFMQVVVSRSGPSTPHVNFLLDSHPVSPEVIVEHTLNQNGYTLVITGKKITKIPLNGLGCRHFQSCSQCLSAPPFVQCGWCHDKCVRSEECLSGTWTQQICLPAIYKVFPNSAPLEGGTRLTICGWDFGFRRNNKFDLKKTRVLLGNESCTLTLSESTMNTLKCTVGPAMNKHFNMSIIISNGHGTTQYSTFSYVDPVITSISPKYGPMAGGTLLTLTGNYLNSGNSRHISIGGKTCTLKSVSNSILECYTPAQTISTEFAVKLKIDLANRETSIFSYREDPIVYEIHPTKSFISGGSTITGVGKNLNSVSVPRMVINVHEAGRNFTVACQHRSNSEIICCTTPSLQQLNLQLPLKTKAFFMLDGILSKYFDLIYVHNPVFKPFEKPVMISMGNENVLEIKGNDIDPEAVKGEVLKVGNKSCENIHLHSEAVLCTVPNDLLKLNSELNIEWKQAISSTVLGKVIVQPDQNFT
Method in brief: (§2)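 Binding is determined by ELISA in which coated MET extracellular domain captures llama-human chimeric IgG1 applied in solution across a concentration series. Protein A-purified material from transient mammalian expression is used.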

mouse MET ECD = target: T4, mouse MET ECD (mouse, UniProt P16056 25-931); experiment: ELISA, MET ECD in solid phase, mAb 0-20 nM
T4 construct: range 1-931; recombinant ECD made by the applicants; the stated range begins at residue 1; also called mMET; mMET ECD
Method in brief: as §2

human MET ECD [16] = target: T3, human MET ECD; experiment: ELISA, MET ECD in solid phase, mAb 0-50 nM
Method: Using human MET as a template, we mutagenized each of these residues in different permutations, generating a series of MET mutants that are fully human except for specific residues, which are llama. Next, we tested the affinity of selected SEMA-binding mAbs (71D6, 71C3, 71D4, 71A3, 71G2) and PSI-binding mAbs (76H10 and 71G3) for these MET mutants by ELISA. To this end, the various MET proteins were immobilized in solid phase (100 ng/well in a 96-well plate) and then exposed to increasing concentrations of antibodies (0-50 nM) solution. […] Wild-type human MET was used as positive control.
TABLE 18 The epitopes of MET responsible for agonistic antibody binding represent residues conserved among H. sapiens, M. musculus, R. norvegicus, M. fascicularis but not among the same species and L. glama. The relevance of residues conserved among human, mouse, rat, cynomolgus monkey but not llama MET for binding to agonistic mAbs was tested by ELISA. Wild-type (WT) or mutant (MT) human MET ECD was immobilized in solid phase and exposed to increasing concentrations of mAbs in solution. […] All binding values were normalized to the WT protein and are expressed as % binding (EMAX) compared to WT MET.

[17] = target: T5, human MET-Fc (R&D Systems) (human, UniProt P08581 25-932); experiment: competition ELISA, hMET-Fc in solid phase, competitor 0.3 nM biotinylated hHGF
T5 construct: extracellular domain; bought chimeric protein; also called hMET; not shown: Fc portion of human IgG1
T5 sequence (P08581 25-932): as the sequence (P08581 25-932 limits assumed, form in doubt) above
Method in brief: (§3)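 First, HGF is biotinylated at the N-terminus via NHS-LC-biotin. Next, the coated chimeric receptor is incubated with this tracer plus antibody at rising concentrations, 0-120 nM. Finally, IC₅₀ and IMAX (maximal % competition reached at saturation) are derived.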

[18] = target: T6, mouse MET-Fc (R&D Systems) (mouse, UniProt P16056 25-929, limits assumed); experiment: competition ELISA, mMET-Fc in solid phase, competitor 0.3 nM biotinylated mHGF
T6 construct: bought chimeric protein; also called mMET; not shown: Fc part
Method in brief: as §3

T1 sequence (P08581 25-1390): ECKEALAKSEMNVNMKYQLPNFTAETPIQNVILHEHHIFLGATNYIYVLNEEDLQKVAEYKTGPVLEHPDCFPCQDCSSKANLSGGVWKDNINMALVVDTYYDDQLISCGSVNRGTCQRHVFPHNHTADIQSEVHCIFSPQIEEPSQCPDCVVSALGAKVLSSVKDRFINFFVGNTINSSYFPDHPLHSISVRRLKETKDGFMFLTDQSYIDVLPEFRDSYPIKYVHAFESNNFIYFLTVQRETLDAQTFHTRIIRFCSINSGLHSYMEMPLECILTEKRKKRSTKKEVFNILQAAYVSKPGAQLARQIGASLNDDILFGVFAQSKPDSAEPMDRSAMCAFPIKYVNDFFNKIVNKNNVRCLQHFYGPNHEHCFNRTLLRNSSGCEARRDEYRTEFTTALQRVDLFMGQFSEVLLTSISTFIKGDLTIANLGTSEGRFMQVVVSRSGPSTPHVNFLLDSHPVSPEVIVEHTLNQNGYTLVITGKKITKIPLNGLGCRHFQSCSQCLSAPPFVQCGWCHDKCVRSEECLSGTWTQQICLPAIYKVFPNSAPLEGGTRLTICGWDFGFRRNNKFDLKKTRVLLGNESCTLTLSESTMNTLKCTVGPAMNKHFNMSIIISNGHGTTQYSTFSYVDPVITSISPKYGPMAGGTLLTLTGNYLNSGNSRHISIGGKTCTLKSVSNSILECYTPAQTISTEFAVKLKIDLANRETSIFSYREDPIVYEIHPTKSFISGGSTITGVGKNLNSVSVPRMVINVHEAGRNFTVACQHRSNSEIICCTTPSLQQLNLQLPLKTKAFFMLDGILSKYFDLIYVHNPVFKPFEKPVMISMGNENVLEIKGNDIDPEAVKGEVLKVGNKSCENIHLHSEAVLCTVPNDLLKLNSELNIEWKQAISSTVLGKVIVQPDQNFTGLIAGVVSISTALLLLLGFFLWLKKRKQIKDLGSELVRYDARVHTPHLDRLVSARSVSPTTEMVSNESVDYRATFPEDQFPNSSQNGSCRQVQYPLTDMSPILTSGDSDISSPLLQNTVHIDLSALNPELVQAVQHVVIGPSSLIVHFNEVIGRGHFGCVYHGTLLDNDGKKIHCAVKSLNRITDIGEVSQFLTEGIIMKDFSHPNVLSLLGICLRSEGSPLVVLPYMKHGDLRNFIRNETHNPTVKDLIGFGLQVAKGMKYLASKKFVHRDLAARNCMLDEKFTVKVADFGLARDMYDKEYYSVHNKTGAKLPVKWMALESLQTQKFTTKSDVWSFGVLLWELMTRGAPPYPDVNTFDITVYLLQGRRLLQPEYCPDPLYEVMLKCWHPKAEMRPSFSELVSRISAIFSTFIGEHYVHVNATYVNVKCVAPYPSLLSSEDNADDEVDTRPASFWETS

B1: 71D4 chimeric llama-human IgG1 mAb (antibody, V domains shown)
VH: ELQLVESGGGLVQPGGSLRLSCAASGFTFSGYGMSWVRQAPGKGLEWVSDINSGGGSTSYADSVKGRFTISRDNAKNTLYLQMNSLKPEDTAVYYCAKDMRLYLARYNDYEAWDYWGQGTQVTVSS
VL: SSALTQPSALSVTLGQTAKITCQGGSLGSSYAHWYQQKPGQAPVLVIYDDDSRPSGIPERFSGSSSGGTATLTISGAQAEDEGDYYCQSADSSGNAAVFGGGTHLTVL
notes: llama VH on human IgG1 CH1-CH2-CH3, llama VL on human lambda CL
[1]
  phospho-MET ELISA EC50, A549 cells: 0.59 nM
  phospho-MET ELISA EMAX (% HGF activity), A549 cells: 84.6%
[2]
  phospho-MET ELISA EC50, MLP29 cells: 0.51 nM
  phospho-MET ELISA EMAX (% HGF activity), MLP29 cells: 95.3%
[3]
  scatter score 0-4, HPAF-II, 0.001 nM: 0 score
  scatter score 0-4, HPAF-II, 0.004 nM: 0 score
  scatter score 0-4, HPAF-II, 0.012 nM: 0 score
  scatter score 0-4, HPAF-II, 0.037 nM: 0 score
  scatter score 0-4, HPAF-II, 0.111 nM: 0 score
  scatter score 0-4, HPAF-II, 0.333 nM: 0 score
  scatter score 0-4, HPAF-II, 1.000 nM: 1 score
  scatter score 0-4, HPAF-II, 3.000 nM: 2 score
  scatter score 0-4, HPAF-II, 9.000 nM: 2 score
[4]
  scatter score 0-4, MLP29, 0.001 nM: 0 score
  scatter score 0-4, MLP29, 0.004 nM: 0 score
  scatter score 0-4, MLP29, 0.012 nM: 0 score
  scatter score 0-4, MLP29, 0.037 nM: 0 score
  scatter score 0-4, MLP29, 0.111 nM: 0 score
  scatter score 0-4, MLP29, 0.333 nM: 0 score
  scatter score 0-4, MLP29, 1.000 nM: 1 score
  scatter score 0-4, MLP29, 3.000 nM: 2 score
  scatter score 0-4, MLP29, 9.000 nM: 2 score
[5]
  protection from staurosporine, viability EC50, MCF10A cells: 30.2 nM
  protection from staurosporine, viability EMAX, MCF10A cells: 51.7%
[6]
  protection from staurosporine, viability EC50, MLP29 cells: 29.8 nM
  protection from staurosporine, viability EMAX, MLP29 cells: 52.1%
[7]
  branches per spheroid, LOC cells, 0.5 nM: 9 branches
  branches per spheroid, LOC cells, 2.5 nM: 15.7 branches
  branches per spheroid, LOC cells, 12.5 nM: 18.7 branches
[8]
  branches per spheroid, MLP29 cells, 0.5 nM: 16 branches
  branches per spheroid, MLP29 cells, 2.5 nM: 14.7 branches
  branches per spheroid, MLP29 cells, 12.5 nM: 21.7 branches
[9]
  EC50: 0.371 nM
  EMAX: 107 % relative to control
[10]
  EC50: 0.498 nM
  EMAX: 94.8 % relative to control
[11]
  % binding (EMAX) compared to WT MET: 114 % WT MET ECD
[12]
  % binding (EMAX) compared to WT MET: 120 % WT MET ECD
[13]
  % binding (EMAX) compared to WT MET: 57.2 % WT MET ECD
[14]
  % binding (EMAX) compared to WT MET: 58.7 % WT MET ECD
Human MET ECD [15]
  EC50: 0.207 nM
  EMAX (OD450): 1.43 AU
Mouse MET ECD
  EC50: 0.274 nM
  EMAX (OD450): 1.17 AU
Human MET ECD [16]
  % binding (EMAX) compared to WT MET: 100 % WT MET ECD
[17]
  IC50: 0.34 nM
  IMAX: 95.6%
[18]
  IC50: 0.4 nM
  IMAX: 91.3%

B2: 71A3 chimeric llama-human IgG1 mAb (antibody, V domains shown)
VH: EVQLVESGGGLVQPGGSLRLSCAASGFSFKDYDITWVRQAPGKGLEWVSTITSRSGSTSYVDSVKGRFTISGDNAKNTLYLQMNSLKPEDTAVYYCAKVYATTWDVGPLGYGMDYWGKGTLVTVSS
VL: SYELTQPSALSVTLGQTAKITCQGGSLGSSYAHWYQQKPGQAPVLVIYDDDSRPSGIPERFSGSSSGGTATLTISGAQAEDEGDYYCQSADSSGNAAVFGGGTHLTVL
notes: as for B1
[1]
  phospho-MET ELISA EC50, A549 cells: 0.31 nM
  phospho-MET ELISA EMAX (% HGF activity), A549 cells: 86.6%
[2]
  phospho-MET ELISA EC50, MLP29 cells: 0.26 nM
  phospho-MET ELISA EMAX (% HGF activity), MLP29 cells: 96%
[3]
  scatter score 0-4, HPAF-II, 0.001 nM: 0 score
  scatter score 0-4, HPAF-II, 0.004 nM: 0 score
  scatter score 0-4, HPAF-II, 0.012 nM: 2 score
  scatter score 0-4, HPAF-II, 0.037 nM: 3 score
  scatter score 0-4, HPAF-II, 0.111 nM: 3 score
  scatter score 0-4, HPAF-II, 0.333 nM: 4 score
  scatter score 0-4, HPAF-II, 1.000 nM: 4 score
  scatter score 0-4, HPAF-II, 3.000 nM: 4 score
  scatter score 0-4, HPAF-II, 9.000 nM: 4 score
[4]
  scatter score 0-4, MLP29, 0.001 nM: 0 score
  scatter score 0-4, MLP29, 0.004 nM: 0 score
  scatter score 0-4, MLP29, 0.012 nM: 2 score
  scatter score 0-4, MLP29, 0.037 nM: 3 score
  scatter score 0-4, MLP29, 0.111 nM: 3 score
  scatter score 0-4, MLP29, 0.333 nM: 4 score
  scatter score 0-4, MLP29, 1.000 nM: 4 score
  scatter score 0-4, MLP29, 3.000 nM: 4 score
  scatter score 0-4, MLP29, 9.000 nM: 4 score
[5]
  protection from staurosporine, viability EC50, MCF10A cells: < 0.5 nM
  protection from staurosporine, viability EMAX, MCF10A cells: 71.7%
[6]
  protection from staurosporine, viability EC50, MLP29 cells: < 0.5 nM
  protection from staurosporine, viability EMAX, MLP29 cells: 70.5%
[7]
  branches per spheroid, LOC cells, 0.5 nM: 24 branches
  branches per spheroid, LOC cells, 2.5 nM: 30.3 branches
  branches per spheroid, LOC cells, 12.5 nM: 31.3 branches
[8]
  branches per spheroid, MLP29 cells, 0.5 nM: 30.3 branches
  branches per spheroid, MLP29 cells, 2.5 nM: 42 branches
  branches per spheroid, MLP29 cells, 12.5 nM: 42.7 branches
[9]
  EC50: 0.514 nM
  EMAX: 161 % relative to control
[10]
  EC50: 0.811 nM
  EMAX: 144 % relative to control
[11]
  % binding (EMAX) compared to WT MET: 117 % WT MET ECD
[12]
  % binding (EMAX) compared to WT MET: 128 % WT MET ECD
[13]
  % binding (EMAX) compared to WT MET: 65.4 % WT MET ECD
[14]
  % binding (EMAX) compared to WT MET: 76.7 % WT MET ECD
Human MET ECD [15]
  EC50: 0.229 nM
  EMAX (OD450): 2.4 AU
Mouse MET ECD
  EC50: 0.176 nM
  EMAX (OD450): 2.73 AU
Human MET ECD [16]
  % binding (EMAX) compared to WT MET: 100 % WT MET ECD
[17]
  IC50: 0.51 nM
  IMAX: 93.4%
[18]
  IC50: 0.54 nM
  IMAX: 87.7%
